Data on 74 sequences can be found in the supplement of paper PMC12636428.

For the data set, the system named is Saccharomyces cerevisiae. The data set can be described thus: transcriptional activation domain activity (GFP:mCherry ratio, weighted mean of sorted bins, harmonized to initial dataset scale) (arbitrary fluorescence ratio units); higher = stronger transcriptional activation. To be noted: beta-estradiol 1 µM; induction time 4 h. An outline of the steps: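 Barcoded protein tiles fused to an estradiol-inducible synthetic transcription factor were integrated at the yeast URA3 locus, in diploids carrying a GFP reporter. Cultures were diluted 1:5 into SC with 1 uM beta-estradiol, held 4 hours at 30 °C, sorted into 8 bins by GFP:mCherry ratio, and barcodes sequenced. Tiles under 50 reads were discarded. Activation activity is the read-weighted mean of bin median fluorescence, averaged across barcodes, then linearly mapped onto the initial dataset scale.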
With “SSPSIQTASSVSTVLVVGSNDKTVKDVGEGLKTKLGVKGGGKGPRWSGKFIGV”, the “transcriptional activation domain activity” value worked out at 19700.
As to “LRDLERSFDLLRFTWVPSIACWILPLLTRPDFSTLLSVLGETIQRFSSNFVIM”, the “transcriptional activation domain activity” value turned out to be 73700.
For “LLLHVLIALRFWRFFGYSIGMVCGILLELVGYCGKVQLSHNRDNKDGYIIGLT” the value was 50800; for “MALYLTFRHCPELFYWVKLRRVSRKIHTFISSIFNIFLYVLMLMNGCIIHHYI”, 57200.
For “SRLLHLLLVTLGLLVVLLYSFFPSPDVFVLSPLRSPLFLLFSPSFFFCLFCLF” the value was 75400; for “SPKMYESFLRIDLRNLEVRVLGMGATTSDVRLANIVVQYLVKGWLPQTAYATL”, 71200.
For “DYSIAQFRFLQRLLLVHGHWNYNRIAQYALATFWKEMLFYCIQLLYQRWNGYT” the value was 37500; for “LQKYTQLSLLAKPLINLSNHSIQYQTLQSWYFKTLQSLEANRFRNFMLCHRIL”, 62300; for “MDEVGLSSMRYYHFSIFNVLIVFLLGTTFLNTIIDLVYTPTSILTLLANSLPQ”, 51800.
On to “GSTSSSNEEKKEQSITSESKAAGGLFGSIKSNEPPTSAFGSLSTTEAKPAASP”, for which the “transcriptional activation domain activity” value came out at 32800.
For “MRTLKLCSSCKHLGPEIYAFGWVCTNLSCQILFRHSGFHSLKGVTYSTSFLAQ”, the “transcriptional activation domain activity” value amounted to 57400.
Next, “HTQENEKVMWNIGSWNAPSLTNSWDSPPGNRTGAVTIGDESINGSEMPDFSLD”: 36100.
Next, “FVEDPEMRRSIVRKFDWRVLTWMAGLSSYLRLWVLYRSSLTRLLMCLVLCINA”: 69800; “VAPLLLAGACCIAHHFMLVFLEGCTVQSEFWIRNANSAFSLLISALLASCVGT”: 77100; “GAKDLDDAVSIKVNEDGTYDVSVHVADVSFFVKPNTALDRDARKRATSVYLVQ”: 48400.
As for “HIFYTQLYPAYDLPKKLQEDTELETEQENQMLNQVGNINYTHDFSLSHEIDDL”, the “transcriptional activation domain activity” value came to 57800.
Next, “TMEMAWLDMGRFFYFLFFYFLFFLLSSFFVFFYSFIYFFFSLLLFFFILWLEM”: 45900; “KKEGEDGKGKRKVVVYVGNAKFVTQREEGRDAFSASLASFDAQESAHGRTTIY”: 75600; “KAGEAKTATSKGAGDEEEGTQKKKGTSSRKKATGTMGNGEVEIGNAGSSEKKK”: 36200.
With “DKDEDAGAVEGEGGVVNANGKKTSGDEAGGERKKKQKQKEREKGGEDGAGKKG”, the “transcriptional activation domain activity” value stood at 47700.
For “EVDMTPADALDDFDLEMLGDVESPSPGMTHDPVSYGALDVDDFEFEQMFTDAL” the value was 112000; for “EGKTRESKQKQGRERIGKGKGSREKGERREEEEGKGGKRRAGRKEGEWRSRGS”, 32400; for “DARRLLSCVRMGFAFYASGCMSTSLILFFSFCLLLPPILTGYQILWLLCIILP”, 68400.
For “IGLCYVIILAIICFQRIYVQPYLYGIEAYMNREICLCWLVLLSLNLSTLQFNQ” the value was 74300; for “PKKLQEDTELETEQENQMLNQVGNINYTHDFSLSHEIDDLIRELFGVGTPQKL”, 65300; for “LVLYHDKFTTYLFAVFFFSLLPHVISSLFFFFFFFFWFLIKCIAMTPQFLFFF”, 34200.
In the case of “AWCHLSVVGRASNLVVYLLIRARKLQLDLGLGFYQRSLLMLCEKLIVVDIFSL”, the “transcriptional activation domain activity” value was 63400.
Next, “ILHELTIVVACHRWNHGLFFFFQMMQIPIIMYSDKIPWFRDQHALRNWCFWLA”: 58000.
Next, “MYLPKPGWLHVAGWLFILSLYLSIYIISYLISSYICNLCSFFCYLLLACILSF”: 49600.
Take “MIYGWSIFFFFFFFALHVYIRVFLWGRFCLRVVWVRLFLFHFSGWGCNFGGFV”: the “transcriptional activation domain activity” value was found to be 49700.
Regarding “FAALRRGLLLIMLFALWDVRLLSELSFTNFVFPPAMFRVIAAQSPSLRAVKVS”, the “transcriptional activation domain activity” value amounted to 45300.
For “NLMGSQARSNSQTPTASTIYEEAESQSSYLDDMFRTSQGGRPVTQNSISSIGQ” the value was 56100.
On to “MPPPRKPHRKSRYGCIQCKRRHVKCDEEKPCRRCLDREEQCSLKPDVAAADIT”, for which the “transcriptional activation domain activity” value came to 17600.
For “VVDHCVSRFSGFTFLFFVLFTAFYMWQIISFVLGVLRLVDMYNFYTHLLKIPD”, the “transcriptional activation domain activity” value was 54300.
For “MGNGVRCLLFGKDFSFIFLLYRFSMWFLISPFQLPCWVLVILSCSCSSLSIFG” the value was 65700; for “LNVQLVYLIHSVLSIVIDFTFKRVEGDMDEWVVSGFSDRFERRITFARLYCNK”, 49000; for “GAAEVDAAAPEGAETIEGAPAATEKQPRPPKKPRTPRPRRPAGEEPAGEPSKN”, 29700.
Next, “EGPPSPDKGKAEDEKNEKPQANTAKKAKPTEEKKVGEGKKAAAGTGGAGAKKE”: 23200; “EDGNGHGTHCSGTIAGKKYGVAKKAHVYAVKVLRSNGSGSMSDVVKGVEFAAT”: 42400.
“MLQQVPRVCIISIFWNISALWAAKRFEPMVSAYSLLSNVPYVLRLVCSWQPTE”: the “transcriptional activation domain activity” value came out at 32200.
Turning to “KPLSIILGLVNVFVLYNYLSTGVSLWMISLRFSSFSCRFLADVFSCLLVFLLC”, the “transcriptional activation domain activity” value turned out to be 60600.
Next, “SKDDRSISSEDKASSDKLKKSSDRADRKRKDDDDSKRSKADRKSKRDEERSSD”: 29600; “ALGLPARPVSHHILIAIPSGLPLRTHELFMQLLFEHLHLSAVMLVDRSIAQTY”: 55300.
Next, “GKEVVDIQEAEVEEGGVKREKVRVVFKDGTDAVGDLVVGCDGARSRARECIVG”: 45700.
Next, “SFVAYFSALWRGKQHRMTGYPIYDFFMGAELNPRMFGILDFKMFFEVRMPWYI”: 67400; “MSEPPRKRAKLACVTCNARRVKCDVTDRQPCTNCITGNVHCETRESKRGKHPR”: 20300.
“NGHIYPLSLNLFCFFSPMHAILYCFSISWDDYLSLAVLHSGLTIQMVLLVWHF”: the “transcriptional activation domain activity” value stood at 50000.
Next, “IEDQTKYVTQAYLAATRIVTIISKLVETRHLIELPIYIRQSVTYAVLILFRLH”: 56400; “AGDKPEKSKKDKKKEKEEKKKAAVAAEKEKQEKGDEAVAAAPSPVAAATPSLL”: 29900; “MATAEPTKKRGRPKKVVLVEESAGNAEAVVAEVVKKTTTKKTSTKAPAAPVTT”: 40300.
Next, “LQAMLLLAHMILAIPFFSLFCRLLLLHPTNPDSPVLWMSLHVFFTYLWSLALV”: 66000; “HWRAFVTGGGSAFWLLAYGIFYWASRLSLDSFTSVILYLGYLVLLALMDFLVT”: 20300; “MSAFSGEDAPSPEGLDRKRKRQRTALSCTECKRRKIKCDRSQPCSSCIRRKVP”: 42300.
For “ILSRLSLCIGIIIAFVFCTIPLLTYHRDSPVLRCSLYNIIDNFFLPLYLFIVW” the value was 53400.
Take “NTLDVSEGNQVINESASTNTSSALNCQSYTNNQDIMDILFQVTSGSVWDEFFV”: the “transcriptional activation domain activity” value was 149000.
Next, “LILILLIWRYCWYDGVIVNKIRAIGNDFCIWNPRMGEPLWTEYSHLVAKCLLF”: 62700; “RGFVVMLEGLFICGGLVIQAFLNLGLSHATGGVTWRFSLAFSCFFDLVVFFSI”: 46600; “AHVGVGISGVEGLQAARSADIAISQFRYLKKLLLVHGAWSYRRLSKLILYSFY”: 82600.
Next, “ERVIGGIQEDLLLIKTFLTRLSLSHHIHNFHADSWSLGHLASLSWYSFMVWFL”: 80000; “KKKSSGRKSGSKGVGRLGSGSEETDEDESSRGSGSEAGRSSKDKKGKSRSNVE”: 39900.
As for “NFLLNVSVVTRWFLFIVPVLGLLWIPGILSVTSFPNATVWSVRLLWWSIWLTV”, the “transcriptional activation domain activity” value turned out to be 63900.
Take “DSFDAPIQTLGDDQRACLKPGLWFAYKVRFCVTLKQYKVLWMCLVLLRHLRIK”: the “transcriptional activation domain activity” value is 48000.
Next, “KSSKEKDTASVKRGSVESDDTPAAAAAATKGKQLSKDGDADDDSDESDEEKEQ”: 33700; “MFQAKLLQHMCDLHTNSGDGELKTLLTEILRMLLVTYIMAHVLTIERDTVHSV”: 47600; “MVILMMGGEYGHFLGFSFYYFLHVWDGEEYYYCCGFYLSQSLLSILLCILLYL”: 55400.
As to “YGILTLQYLVGVIWVLDTLHTIFVTHMVYTYLVTNFGDYLALGHNIWSFNLHV”, the “transcriptional activation domain activity” value amounted to 37100.
Take “LVVFVFLILVVFVFLILVVFVFLILLILAFFVFLILLALLIFLILLVFLVFLV”: the “transcriptional activation domain activity” value amounted to 30600.
Regarding “VEEVLEKRAHRGPAGRSVEEEDEDVEEVLEKRAHRGPAGRSVEVEEKRAHRGP”, the “transcriptional activation domain activity” value is 29700.
Next, “MNPTPAVFALFFPVIFCVYICYAWFLLFFVFWEPFFFLHIFLYRIILLSIWNL”: 29900; “MSRLSIYVALLLLESICICWRGWIAPRHVAMESVQINFKTGRFLVYFMFPIKA”: 32000.
For the sequence “MGPWICQTQPTSYLILSGLVHSFLKSSQGFISYIFSTLVHMTFLVFLYIHLFR”, the “transcriptional activation domain activity” value is 58800.
Next, “MLIGTVFLICSLNLCLLFLGWAWGCIVLYLDDLNILLLSCLFTFFLCTFTFFS”: 40900; “RRDILHRAIVFEGDAARSGTASTKWRSEVRGSARKMRPQKGSGRARLGDKKSP”: 15600; “LSDDEEEEGGKGREGEGRERKRRGREGKRKGGEERGRGRGREGEREGGEGEGG”: 27300.
